The values that follow come from patent publication WO2001004269A1.

Experiment [1] concerns the target von Willebrand factor (UniProt P04275). Described as above, after thrombin digestion (activated factor VIII) in the absence of antibody. The arrangement: unit not given here.
The target is the same in experiment [2]. Put plainly: biotinylated recombinant factor VIII complexed to von Willebrand factor, captured on the anti-von Willebrand factor antibody MoAb4H1D7, no thrombin digestion, avidin-peroxidase detection. The arrangement: unit not given here.

As to “human recombinant factor VIII (from UniProt P00451 20-2351)”, the OD450 (OD450 (so in the source)) with von Willebrand factor [1] turned out to be 160; with von Willebrand factor [2], 460.
